Molecular target: NUDT5 (Homo sapiens, UniProt Q9UKK9, dNUDT5 ternary complex, engineered CRBNmidi)
Experiment: proximity binding assay

B1: CRBNmidi (protein)
chain: MAGEGDQQDAAHNMGNHLPLLPAESEEEDEMEVEDQDSKEAKKPNIINFDTSLPTSHTYLGADMEEFHGRTLHDDDSCQVIPVLPQVMMILIPGQTLPLQLFHPQEVSMVRNLIQKDRTFAVLAYSNVQEREAQFGTTAEIYAYREEQDFGIEIVKVKAIGRQRFKVLELRTQSDGIQQAKVQILPECVLPSTMSAVQLESLNKCQIFPSKPVSREDQCSYKWWQKYQKRKFHCANLTSWPRWLYSLYDAETLMDRIKKQLREWDENLKDDSLPSNPIDFSYRVAACLPIDDVLRIQLLKIGSAIQRLRCELDIMNKCTSLCCKQCQETEITTKNEIFSLSLCGPMAAYVNPHGYVHETLTVYKACNLNLIGRPSTEHSWFPGYAWTVAQCKICASHIGWKFTATKKDMSPQKFWGLTRSALLPTIPDTEDEISPDKVILCL
Kd: 0.34 nM

Reference: article PMC13462928 (2026)
